Results taken from patent publication US20120316071A1 (published 2012).
Residue numbers refer to the chain shown, from its start. In names and notes the source's numbering stands.

T1: rHuman Erythropoietin R/Fc Chimera, CF (R&D Systems Cat#963-ER) (human, UniProt P19235 25-250)
T1 construct: Bought reagent; also called EPO R; EPO R/Fc; Fc part of the bought chimera not given
T1 sequence (looked up): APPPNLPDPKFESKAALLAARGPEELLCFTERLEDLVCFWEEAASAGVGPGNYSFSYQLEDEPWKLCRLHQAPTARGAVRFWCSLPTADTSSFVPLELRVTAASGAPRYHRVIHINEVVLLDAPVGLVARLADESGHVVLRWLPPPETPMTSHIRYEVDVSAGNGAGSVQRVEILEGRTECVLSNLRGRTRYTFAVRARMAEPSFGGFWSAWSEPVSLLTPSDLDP

T2: rHuman Erythropoietin R/Fc Chimera, CF (R&D Systems Cat#963-ER) (human, UniProt P19235 25-250)
T2 construct: Bought recombinant Fc chimera; also called EPO R; EPO R/Fc; Fc part of the bought chimera not given
T2 sequence (looked up): T1 sequence (looked up)

B1: Fab VH1-46_IGHD3-10*01_IGHJ4*01 & L12_IGKJ1*01 (Fab, V domains shown)
VH: QVQLVQSGAEVKKPGASVKVSCKASGYTFTSYYMHWVRQAPGQGLEWMGIINPSGGSTSYAQKFQGRVTMTRDTSTSTVYMELSSLRSEDTAVYYCAREYYYGSGSYYNDYFDYWGQGTLVTVSS
VL: not shown
notes: Germline Fab made in E. coli: VH in Plasmid A (CH1, His6 and Flag tags), kappa VL in Plasmid C (kappa CL)
B2: Fab VH5-51_IGHD5-18*01>3_IGHJ4*01 & V3-4_IGLJ1*01 (Fab, V domains shown)
VH: EVQLVQSGAEVKKPGESLKISCKGSGYSFTSYWIGWVRQMPGKGLEWMGIIYPGDSDTRYSPSFQGQVTISADKSISTAYLQWSSLKASDTAMYYCARRGYSYGYDYFDYWGQGTLVTVSS
VL: QTVVTQEPSFSVSPGGTVTLTCGLSSGSVSTSYYPSWYQQTPGQAPRTLIYSTNTRSSGVPDRFSGSILGNKAALTITGAQADDESDYYCVLYMGSGISYVFGTGTKVTVL
notes: Germline Fab made in E. coli: VH in Plasmid A (CH1, His6 and Flag tags), lambda VL in Plasmid E (lambda CL)
B3: Fab VH6-1_IGHD3-3*01_IGHJ4*01 & V4-3_IGLJ4*01 (Fab, V domains shown)
VH: QVQLQQSGPGLVKPSQTLSLTCAISGDSVSSNSAAWNWIRQSPSRGLEWLGRTYYRSKWYNDYAVSVKSRITINPDTSKNQFSLQLNSVTPEDTAVYYCAREYYDFWSGYYTDYFDYWGQGTLVTVSS
VL: QPVLTQPTSLSASPGASARLTCTLRSGINLGSYRIFWYQQKPESPPRYLLSYYSDSSKHQGSGVPSRFSGSKDASSNAGILVISGLQSEDEADYYCMIWHSSASFVFGGGTQLIIL
notes: as for B2
B4: Fab VH3-23_IGHD2-21*01>3_IGHJ6*01 H100E/S108P/Y113G/Y111H & V2-13_IGLJ2*01 (Fab, V domains shown)
VH: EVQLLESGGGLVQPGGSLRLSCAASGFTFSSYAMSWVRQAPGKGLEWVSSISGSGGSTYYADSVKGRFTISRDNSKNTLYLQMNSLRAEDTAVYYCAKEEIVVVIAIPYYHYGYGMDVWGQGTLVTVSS
VL: SSELTQDPAVSVALGQTVRITCQGDSLRSYYASWYQQKPGQAPVLVIYGKNNRPSGIPDRFSGSSSGNTASLTITGAQAEDEADYYCNSRDSSGNHLVVFGGGTKLTVL
notes: Fab made in E. coli: VH joined to CH1 (with His and Flag tags, plasmid A) and VL to lambda CL (plasmid E); also called EPG Y111H
B5: Fab VH3-23_IGHD2-21*01>3_IGHJ6*01 H100E/S108P/Y113G Y114H & V2-13_IGLJ2*01 (Fab, V domains shown)
VH: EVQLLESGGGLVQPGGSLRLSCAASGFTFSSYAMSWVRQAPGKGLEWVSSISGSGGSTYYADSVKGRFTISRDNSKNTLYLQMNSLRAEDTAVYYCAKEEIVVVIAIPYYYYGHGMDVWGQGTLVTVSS
VL: B4 VL
notes: Tested as Fab made in E. coli (VH-CH1 with His and Flag tags; lambda CL); also called EPG Y114H
B6: Fab VH1-46_IGHD6-6*01_IGHJ1*01 S102A/S103P/S104F/H111F G55A & L6_IGKJ1*01 (Fab, V domains shown)
VH: QVQLVQSGAEVKKPGASVKVSCKASGYTFTSYYMHWVRQAPGQGLEWMGIINPSAGSTSYAQKFQGRVTMTRDTSTSTVYMELSSLRSEDTAVYYCAREEYAPFSAEYFQFWGQGTLVTVSS
VL: not shown
notes: Fab (CH1 with His6/Flag tags from Plasmid A, kappa CL from Plasmid C); also called APFF G55A
B7: Fab VH1-46_IGHD6-6*01_IGHJ1*01 S102A/S103P/S104F/H111F I51A & L6_IGKJ1*01 (Fab, V domains shown)
VH: B6 VH with I51A, A55G
VL: not shown
notes: Fab (CH1 with His6/Flag tags from Plasmid A, kappa CL from Plasmid C); also called APFF I51A
B8: Fab VH1-46_IGHD6-6*01_IGHJ1*01 S102A/S103P/S104F/H111F N52A & L6_IGKJ1*01 (Fab, V domains shown)
VH: B6 VH with N52A, A55G
VL: not shown
notes: Fab (CH1 with His6/Flag tags from Plasmid A, kappa CL from Plasmid C); also called APFF N52A
B9: Fab VH1-46_IGHD6-6*01_IGHJ1*01 S102A/S103P/S104F/H111F P53A & L6_IGKJ1*01 (Fab, V domains shown)
VH: B6 VH with P53A, A55G
VL: not shown
notes: Fab (CH1 with His6/Flag tags from Plasmid A, kappa CL from Plasmid C); also called APFF P53A
B10: Fab VH1-46_IGHD6-6*01_IGHJ1*01 S102A/S103P/S104F/H111F S57A & L6_IGKJ1*01 (Fab, V domains shown)
VH: B6 VH with A55G, S57A
VL: not shown
notes: Fab (CH1 with His6/Flag tags from Plasmid A, kappa CL from Plasmid C); also called APFF S57A
B11: Fab VH1-46_IGHD6-6*01_IGHJ1*01 S102A/S103P/S104F/H111F G56A & L6_IGKJ1*01 (Fab, V domains shown)
VH: B6 VH with A55G, G56A
VL: not shown
notes: Fab (CH1 with His6/Flag tags from Plasmid A, kappa CL from Plasmid C); also called APFF G56A
B12: Fab VH1-46_IGHD6-6*01_IGHJ1*01 S102A/S103P/S104F/H111F I50A & L6_IGKJ1*01 (Fab, V domains shown)
VH: B6 VH with I50A, A55G
VL: not shown
notes: Fab (CH1 with His6/Flag tags from Plasmid A, kappa CL from Plasmid C); also called APFF I50A

Molecular target: T3, Recombinant Human DLL4 (R&D Systems Cat#1506-D4/CF) (human, UniProt Q9NR61 27-529)
T3 construct: Bought recombinant protein; also called rHuman DLL4; delta-like protein 4
Test: surface plasmon resonance, Fab against recombinant human DLL4; standard deviation in parentheses

Kd [µM] | koff [s⁻¹] | kon [M⁻¹ s⁻¹] | Binder
0.5 | 0.29 | 500000 | B1
4.8 | – | – | B2
38 | – | – | B3

Molecular target: T4, rHuman P-Cadherin/Fc Chimera, CF (R&D Systems Cat#861-PC) (human, UniProt P22223 108-654)
T4 construct: Bought recombinant protein; Fc part of the bought chimera not given
Test: ECL (MSD) multispot binding assay, antigen spotted on plate, 20 nM Fab;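 further: purified Fab incubated 1 h at 20 °C on antigen-spotted plate, bound Fab revealed with TAG detection antibody, ECL read, antigen signal divided by same-well blank, ratio ≥4 counted as hit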

ECL signal/blank ratio | Binder
7.7 | B4

Molecular target: T5, rHuman CD44/Fc Chimera, CF (R&D Systems Cat#3660-CD) (human, UniProt P16070 21-220)
T5 construct: Bought reagent; Fc part of the bought chimera not given
Test: as above

ECL multispot value | Binder
1.8 | B5

Molecular target: T6, rHuman P-Cadherin/Fc Chimera, CF (R&D Systems Cat#861-PC) (human, UniProt P22223 108-654)
T6 construct: Bought reagent; Fc part of the bought chimera not given
Test: as above

ECL multispot value | Binder
27 | B5

Molecular target: T7, rHuman Notch-1/Fc Chimera, CF (R&D Systems Cat#3647-TK) (human, UniProt P46531 19-526)
T7 construct: Bought recombinant protein; Fc part of the bought chimera not given
Test: as above

ECL signal/blank ratio | Binder
1.5 | B4

Molecular target: T8, rHuman CD44/Fc Chimera, CF (R&D Systems Cat#3660-CD) (human, UniProt P16070 21-220)
T8 construct: Bought recombinant protein; Fc part of the bought chimera not given
Test: as above

ECL signal/blank ratio | Binder
1.3 | B4

Molecular target: T1, rHuman Erythropoietin R/Fc Chimera, CF …
Test: as above

ECL multispot value | Binder
120 | B5

Molecular target: T9, Recombinant Human DLL4 (R&D Systems Cat#1506-D4/CF) (human, UniProt Q9NR61 27-524)
T9 construct: Bought recombinant protein; also called delta-like protein 4; rHuman DLL4
Test: as above

ECL signal/blank ratio | Binder
1.6 | B4

Molecular target: T10, rHuman ErbB2/Fc Chimera, CF (R&D Systems Cat#1129-ER) (human, UniProt P04626 23-652)
T10 construct: Bought reagent; also called human epidermal growth factor 2 receptor; Fc part of the bought chimera not given
Test: as above

ECL multispot value | Binder
12.5 | B5

Molecular target: T11, rHuman IGF-1 sR, CF (R&D Systems Cat#391-GR) (human, UniProt P08069 31-932)
T11 construct: Bought soluble receptor; also called insulin-like growth factor-1 soluble receptor
Test: as above

ECL multispot value | Binder
1.4 | B5

Molecular target: T12, rHuman IGF-1 sR, (IGF-1 sR), CF (R&D Systems Cat#391-GR) (human, UniProt P08069 31-932)
T12 construct: Bought recombinant soluble receptor; also called insulin-like growth factor-1 soluble receptor
Test: as above

ECL signal/blank ratio | Binder
1.2 | B4

Molecular target: T13, Recombinant Human DLL4 (R&D Systems Cat#1506-D4/CF) (human, UniProt Q9NR61 27-524)
T13 construct: Bought recombinant protein; also called delta-like protein 4; rHuman DLL4
Test: as above

ECL multispot value | Binder
2.3 | B5

Molecular target: T14, rHuman IGF-1 sR, CF (R&D Systems Cat#391-GR) (human, UniProt P08069 31-932)
T14 construct: Bought soluble receptor; also called insulin-like growth factor-1 soluble receptor
Test: ECL multispot (MSD) assay, antigen spotted on plate, 10 nM Fab;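 further: bound Fab detected with a TAG-labelled detection antibody (1 h, 20 °C), electrochemiluminescence read and compared with each well's blank, signal/blank of 4 or above scored as hit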

ECL signal | Binder
392 | B6
383 | B7
362 | B8
374 | B9
417 | B10
422 | B11
247 | B12

Molecular target: T15, rHuman CD44/Fc Chimera, CF (R&D Systems Cat#3660-CD) (human, UniProt P16070 21-220)
T15 construct: Bought recombinant Fc chimera; Fc part of the bought chimera not given
Test: as above

ECL signal | Binder
365 | B6
391 | B7
362 | B8
378 | B9
439 | B10
330 | B11
326 | B12

Molecular target: T16, rHuman EGF R/Fc Chimera, CF (R&D Systems Cat#344-ER) (human, UniProt P00533 25-645)
T16 construct: Bought recombinant Fc chimera; also called epidermal growth factor receptor; Fc part of the bought chimera not given
Test: as above

ECL signal | Binder
217 | B6
373 | B7
340 | B8
439 | B9
302 | B10
355 | B11
402 | B12

Molecular target: T17, Recombinant Human DLL4 (R&D Systems Cat#1506-D4/CF) (human, UniProt Q9NR61 27-524)
T17 construct: Bought recombinant protein; also called delta-like protein 4; rHuman DLL4
Test: as above

ECL signal | Binder
14500 | B6
159000 | B7
169000 | B8
151000 | B9
112000 | B10
189000 | B11
2670 | B12

Molecular target: T18, rHuman P-Cadherin/Fc Chimera, CF (R&D Systems Cat#861-PC) (human, UniProt P22223 108-654)
T18 construct: Bought recombinant Fc chimera; Fc part of the bought chimera not given
Test: as above

ECL signal | Binder
426 | B6
144 | B7
353 | B8
390 | B9
232 | B10
214 | B11
313 | B12

Molecular target: T19, rHuman HGF R/c-MET/Fc Chimera, CF (R&D Systems Cat#358-MT/CF) (human, UniProt P08581 25-932)
T19 construct: Bought recombinant Fc chimera; also called HGF R/Fc; hepatocyte growth factor receptor; Fc part of the bought chimera not given
Test: as above

T19 sequence (P08581 25-932, change not shown): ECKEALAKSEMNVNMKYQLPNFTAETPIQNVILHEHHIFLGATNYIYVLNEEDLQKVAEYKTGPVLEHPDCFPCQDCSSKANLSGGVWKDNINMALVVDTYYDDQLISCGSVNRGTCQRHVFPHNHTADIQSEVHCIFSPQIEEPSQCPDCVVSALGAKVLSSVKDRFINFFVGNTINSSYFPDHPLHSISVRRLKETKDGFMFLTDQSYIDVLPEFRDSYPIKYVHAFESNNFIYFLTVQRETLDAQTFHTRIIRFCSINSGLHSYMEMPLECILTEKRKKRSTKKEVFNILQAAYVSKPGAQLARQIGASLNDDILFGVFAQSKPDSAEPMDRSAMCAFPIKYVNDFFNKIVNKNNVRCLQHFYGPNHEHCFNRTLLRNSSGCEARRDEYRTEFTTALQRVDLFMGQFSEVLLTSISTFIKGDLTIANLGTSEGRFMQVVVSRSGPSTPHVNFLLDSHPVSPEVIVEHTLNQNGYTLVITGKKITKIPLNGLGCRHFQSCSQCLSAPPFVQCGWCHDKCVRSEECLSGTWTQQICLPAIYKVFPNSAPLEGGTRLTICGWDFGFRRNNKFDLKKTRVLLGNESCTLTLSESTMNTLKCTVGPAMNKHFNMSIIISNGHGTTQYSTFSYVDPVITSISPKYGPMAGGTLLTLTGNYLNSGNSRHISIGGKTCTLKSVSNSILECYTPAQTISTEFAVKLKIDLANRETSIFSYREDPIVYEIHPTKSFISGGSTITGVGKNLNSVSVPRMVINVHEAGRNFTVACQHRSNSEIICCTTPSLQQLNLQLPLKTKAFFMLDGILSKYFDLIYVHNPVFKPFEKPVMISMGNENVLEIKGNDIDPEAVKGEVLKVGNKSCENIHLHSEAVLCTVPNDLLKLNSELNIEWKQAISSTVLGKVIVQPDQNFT

ECL signal | Binder
221 | B6
440 | B7
369 | B8
337 | B9
388 | B10
313 | B11
301 | B12

Molecular target: T20, rHuman ErbB2/Fc Chimera, CF (R&D Systems Cat#1129-ER) (human, UniProt P04626 23-652)
T20 construct: Bought recombinant Fc chimera; also called human epidermal growth factor 2 receptor; Fc part of the bought chimera not given
Test: as above

ECL signal | Binder
474 | B6
344 | B7
378 | B8
203 | B9
304 | B10
279 | B11
369 | B12

Molecular target: T21, rHuman Notch-1/Fc Chimera, CF (R&D Systems Cat#3647-TK) (human, UniProt P46531 19-526)
T21 construct: Bought recombinant Fc chimera; Fc part of the bought chimera not given
Test: as above

ECL signal | Binder
381 | B6
312 | B7
383 | B8
393 | B9
365 | B10
331 | B11
297 | B12

Molecular target: T2, rHuman Erythropoietin R/Fc Chimera, CF …
Test: as above

ECL signal | Binder
305 | B6
380 | B7
468 | B8
427 | B9
477 | B10
466 | B11
252 | B12
